Laboratory results as given in the Immune Epitope Database (IEDB).

How the values were obtained:
[1] = biological target: HLA-B*18:01; assay: IEDB peptide-MHC binding, purified MHC/direct/fluorescence; filed as Kd, often an IC50 or EC50 that approximates it; ≥ and ≤ were set here for values at or beyond the usual limits of such assays
[2] = biological target: HLA-B*40:01; assay: as above
[3] = biological target: HLA-B*08:02; assay: as above
[4] = biological target: HLA-A*01:01; assay: as above
[5] = biological target: HLA-B*07:02; assay: as above
[6] = biological target: HLA-A*02:01; assay: as above
[7] = biological target: HLA-A*11:01; assay: as above
[8] = biological target: HLA-B*48:01; assay: as above
[9] = biological target: HLA-A*68:02; assay: as above
[10] = biological target: HLA-A*26:03; assay: as above
[11] = biological target: HLA-B*15:17; assay: as above; settings: source organism: Orthomarburgvirus marburgense
[12] = biological target: HLA-B*57:01; assay: as above
[13] = biological target: HLA-B*58:01; assay: as above
[14] = biological target: HLA-A*31:01; assay: as above
[15] = biological target: HLA-B*08:03; assay: as above
[16] = biological target: HLA-A*26:02; assay: as above
[17] = biological target: HLA-B*44:02; assay: as above; settings: source organism: Orthomarburgvirus marburgense
[18] = biological target: HLA-B*27:05; assay: as above
[19] = biological target: HLA-A*69:01; assay: as above
[20] = biological target: HLA-B*39:01; assay: IEDB peptide-MHC binding, purified MHC/competitive/fluorescence; filed as Kd, often an IC50 or EC50 that approximates it; ≥ and ≤ were set here for values at or beyond the usual limits of such assays; settings: source organism: Orthomarburgvirus marburgense
[21] = biological target: HLA-A*02:06; assay: as above
[22] = biological target: HLA-B*46:01; assay: IEDB peptide-MHC binding, purified MHC/direct/fluorescence; filed as Kd, often an IC50 or EC50 that approximates it; ≥ and ≤ were set here for values at or beyond the usual limits of such assays
[23] = biological target: HLA-B*15:01; assay: as above; settings: source organism: Burkholderia mallei
[24] = biological target: HLA-A*03:01; assay: as above
[25] = biological target: HLA-A*26:01; assay: as above
[26] = biological target: HLA-B*08:01; assay: as above
[27] = biological target: HLA-A*02:01; assay: IEDB peptide-MHC binding, purified MHC/competitive/fluorescence; filed as Kd, often an IC50 or EC50 that approximates it; ≥ and ≤ were set here for values at or beyond the usual limits of such assays
[28] = biological target: HLA-A*68:02; assay: as above
[29] = biological target: HLA-B*15:17; assay: as above
[30] = biological target: HLA-B*27:05; assay: as above; settings: source organism: Burkholderia mallei NCTC 10229
[31] = biological target: HLA-A*02:03; assay: as above; settings: source organism: Human immunodeficiency virus 1
[32] = biological target: HLA-B*18:01; assay: as above
[33] = biological target: HLA-A*01:01; assay: as above; settings: source organism: Human immunodeficiency virus 1
[34] = biological target: HLA-A*30:01; assay: as above; settings: source organism: Human immunodeficiency virus 1
[35] = biological target: HLA-A*11:01; assay: as above; settings: source organism: Human immunodeficiency virus 1
[36] = biological target: HLA-A*26:02; assay: as above
[37] = biological target: HLA-A*69:01; assay: as above; settings: source organism: Human immunodeficiency virus 1
[38] = biological target: HLA-B*15:01; assay: as above
[39] = biological target: HLA-B*57:01; assay: as above; settings: source organism: Giardia lamblia ATCC 50803
[40] = biological target: HLA-A*24:03; assay: IEDB peptide-MHC binding, purified MHC/direct/fluorescence; filed as Kd, often an IC50 or EC50 that approximates it; ≥ and ≤ were set here for values at or beyond the usual limits of such assays; settings: source organism: Cowpox virus
[41] = biological target: HLA-A*26:03; assay: IEDB peptide-MHC binding, purified MHC/competitive/fluorescence; filed as Kd, often an IC50 or EC50 that approximates it; ≥ and ≤ were set here for values at or beyond the usual limits of such assays; settings: source organism: Variola virus
[42] = source organism: Orthomarburgvirus marburgense
[43] = source organism: Ravn virus - Ravn, Kenya, 1987
[44] = source organism: Burkholderia mallei
[45] = source organism: Burkholderia mallei ATCC 23344
[46] = source organism: Burkholderia mallei NCTC 10229
[47] = source organism: Human immunodeficiency virus 1
[48] = source organism: Giardia intestinalis
[49] = source organism: Giardia lamblia ATCC 50803

LEHGLYPQL
Kd [1, 42]: 0.034 µM
Kd [2, 42]: 0.017 µM
Kd [3, 43]: ≥ 20 µM
Kd [4, 42]: ≥ 20 µM
Kd [5, 42]: ≥ 20 µM
Kd [6, 42]: ≥ 20 µM
Kd [7, 42]: ≥ 20 µM
Kd [8, 42]: 0.634 µM
Kd [9, 42]: ≥ 20 µM
Kd [10, 43]: ≥ 20 µM
Kd [11]: ≥ 20 µM
Kd [12, 42]: ≥ 20 µM
Kd [13, 42]: ≥ 20 µM
Kd [14, 42]: ≥ 20 µM
Kd [15, 43]: ≥ 20 µM
Kd [16, 43]: ≥ 20 µM
Kd [17]: ≥ 5 µM
Kd [18, 42]: ≥ 20 µM
Kd [19, 42]: ≥ 20 µM
Kd [20]: 0.931 µM
Kd [21, 42]: ≥ 20 µM

RRSLLAHVR
Kd [22, 44]: ≥ 20 µM
Kd [23]: ≥ 20 µM
Kd [1, 44]: ≥ 20 µM
Kd [24, 44]: 1.18 µM
Kd [2, 44]: ≥ 20 µM
Kd [3, 45]: ≥ 20 µM
Kd [4, 44]: ≥ 20 µM
Kd [5, 44]: ≥ 20 µM
Kd [7, 44]: 1.13 µM
Kd [8, 44]: ≥ 20 µM
Kd [10, 45]: ≥ 20 µM
Kd [25, 45]: ≥ 20 µM
Kd [12, 44]: ≥ 20 µM
Kd [13, 44]: ≥ 20 µM
Kd [14, 44]: 5.4 µM
Kd [26, 45]: ≥ 20 µM
Kd [16, 45]: ≥ 20 µM
Kd [27, 46]: 0.034 µM
Kd [28, 46]: 2.92 µM
Kd [29, 46]: ≥ 20 µM
Kd [30]: 0.0066 µM

RSLYNTVATLY
Kd [31]: ≥ 20 µM
Kd [32, 47]: 0.0763 µM
Kd [33]: ≥ 20 µM
Kd [34]: ≥ 20 µM
Kd [35]: ≥ 20 µM
Kd [21, 47]: ≥ 20 µM
Kd [29, 47]: 0.0007 µM
Kd [36, 47]: ≥ 20 µM
Kd [37]: 16.6 µM

RTMPLSRFT
Kd [22, 48]: ≥ 20 µM
Kd [1, 48]: ≥ 20 µM
Kd [24, 48]: ≥ 20 µM
Kd [2, 48]: ≥ 20 µM
Kd [3, 49]: ≥ 20 µM
Kd [4, 48]: ≥ 20 µM
Kd [5, 48]: ≥ 20 µM
Kd [7, 48]: 2.68 µM
Kd [8, 48]: ≥ 20 µM
Kd [10, 49]: ≥ 20 µM
Kd [25, 49]: ≥ 20 µM
Kd [13, 48]: ≥ 20 µM
Kd [14, 48]: 12.5 µM
Kd [15, 49]: ≥ 20 µM
Kd [26, 49]: ≥ 20 µM
Kd [18, 48]: ≥ 20 µM
Kd [19, 48]: ≥ 20 µM
Kd [38, 49]: 14 µM
Kd [27, 49]: ≥ 20 µM
Kd [28, 49]: 4.56 µM
Kd [29, 49]: ≥ 20 µM
Kd [39]: 0.375 µM

STKAACPTM
Kd ([25]; source organism: West Nile virus): 15.7 µM
Kd ([16]; source organism: West Nile virus strain PTRoxo): 1.04 µM

VYSFDESSF
Kd ([4]; source organism: Cowpox virus): ≥ 20 µM
Kd ([5]; source organism: Cowpox virus): ≥ 20 µM
Kd ([6]; source organism: Cowpox virus): ≥ 20 µM
Kd [40]: 0.275 µM
Kd ([7]; source organism: Cowpox virus): ≥ 20 µM
Kd ([9]; source organism: Cowpox virus): ≥ 20 µM
Kd ([12]; source organism: Cowpox virus): ≥ 20 µM
Kd ([13]; source organism: Cowpox virus): ≥ 20 µM
Kd ([14]; source organism: Cowpox virus): ≥ 20 µM
Kd ([19]; source organism: Cowpox virus): ≥ 20 µM
Kd ([38]; source organism: Variola virus): 2.28 µM
Kd ([32]; source organism: Variola virus): 0.379 µM
Kd ([21]; source organism: Variola virus): ≥ 20 µM
Kd [41]: 1.42 µM
Kd ([29]; source organism: Variola virus): 2.1 µM
Kd ([36]; source organism: Variola virus): 0.192 µM
